Read-outs that look alike come from different tables or passages of the source.
Columns and labels:
Test in all cases: ELISA, supernate
[1] = target: first-generation H1 LAH construct H1frThrST (Influenza A virus (H1))
[2] = target: first-generation H3 LAH construct H3frThrST (Influenza A virus (H3))
[3] = target: first-generation H1 LAH construct H1frThrST (Influenza A virus (H1)); remark: listed apart in the source

B1: mAb 5I17 (antibody, V domains shown)
VH: EVQLVESGGGVVQPGRSLRLSCAASGFSFSNYAMHWVRQAPGKGLEWVALISFDGSDKYYADSVKGRFTMSRDNSKNTLYLQMNSLRAEDTAVYYCARDEPYCGGDCFAFDVWGQGTMVTVS
VL: DIQLTQSPSSLSASAGDRVSMTCRASQIISSSLNWYQQKPGKAPKLLIYAASNLQSGVPSRFSGSGSGTDFTLTISSLQPEDFATYYCQQSYSTPPELTFGGGTKVDIKR
OD [1]: 0.07 OD
OD [2]: 0.07 OD
OD [3]: 0.078 OD

From patent US20130289246A1
